Bridge positions count the residues as written; N and C are the ends. Ends that are not written are not given here.

In assay [1] the target is T1, glycosylated bovine DCN (purified, Sigma-Aldrich) (bovine, UniProt P21793 31-360, glycosylated (GAG chain)).
T1 construct: also called bDCN*
Kind of assay: ELISA, protein coated (FIG. 16B). From the text: (§1) Bovine DCN was from Sigma-Aldrich, NS0-derived murine DCN was from R&D Systems. Murine DCN cDNA was generated from WAT total RNA using SuperScript kit (Invitrogen). For bacterial expression, full-length mouse core DCN and ΔDCN isoforms were produced by cloning fragments encoding amino acids 1-354 and 45-354 of mouse DCN cDNA (OriGene) or of CLIC4 cDNA (OriGene) in-frame with the His₆Tag into pET28a vector, respectively. His₆-tagged proteins were purified with His-Tag kit (Novagen). For ELISA binding assays, 100 μl of 10 μg/ml of indicated His₆-DCN preparations, His₆-CLIC4 (control His₆-protein), NS0 cell-expressed mouse DCN (R&D Systems), purified bovine DCN (Sigma-Aldrich), or BSA were coated and immobilized onto Maxisorb Immunoplates (96 well; NUNC) overnight at 4° C., followed by blocking with 3% BSA, and then incubating with 100 μl of indicated concentrations of WAT7 or control WAT2 peptides. […] Bound peptides or FLAG-resistin were probed with corresponding rabbit anti-peptide Genemed antibodies (1:2,000) or rabbit anti-FLAG antibodies (Sigma-Aldrich, 1:2,000) followed by secondary goat anti-rabbit HRP-conjugated antibodies (Millipore, 1:5,000) and signal detection with Ultra-TMB (Pierce) substrate and measurement of absorbance at 450 nm. […]

Assay [2] deals with T2, bovine serum albumin (bovine, UniProt P02769 25-607).
T2 construct: Background control in ELISA; also called BSA
T2 sequence (P02769 25-607 limits assumed): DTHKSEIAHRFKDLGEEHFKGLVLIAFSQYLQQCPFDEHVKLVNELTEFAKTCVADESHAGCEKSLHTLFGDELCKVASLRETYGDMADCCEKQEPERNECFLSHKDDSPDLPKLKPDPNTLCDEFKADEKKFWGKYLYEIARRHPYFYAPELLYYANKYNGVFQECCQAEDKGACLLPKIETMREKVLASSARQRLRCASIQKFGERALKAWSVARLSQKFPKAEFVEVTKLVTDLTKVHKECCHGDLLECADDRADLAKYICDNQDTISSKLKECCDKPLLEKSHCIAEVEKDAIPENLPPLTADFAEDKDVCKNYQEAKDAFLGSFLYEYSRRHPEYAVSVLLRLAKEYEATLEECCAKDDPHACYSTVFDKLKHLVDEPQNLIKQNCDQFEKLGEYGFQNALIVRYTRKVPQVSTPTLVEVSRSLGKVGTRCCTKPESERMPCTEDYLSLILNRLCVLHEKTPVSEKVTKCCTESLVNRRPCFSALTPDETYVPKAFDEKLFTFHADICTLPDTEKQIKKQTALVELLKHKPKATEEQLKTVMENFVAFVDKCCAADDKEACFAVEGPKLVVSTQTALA
Kind of assay: ELISA, BSA coated as background control.
Excerpt: as §1, with “Signal was detected by Odyssey imaging system using anti-goat IRDye 800CW or anti-rabbit IRDye 680 both from Licor Biosciences. Bovine” for “Bovine”
On the technique in general: An ELISA detects its analyte on a solid surface through an enzyme-linked reagent.

Assay [3] deals with T2, bovine serum albumin. Kind of assay: ELISA, BSA coated as background control (FIG. 6D).
Excerpt: as §1, with “Signal was detected by Odyssey imaging system using anti-goat IRDye 800CW or anti-rabbit IRDye 680 both from Licor Biosciences. Bovine” for “Bovine”

For assay [4], the target named is T1, glycosylated bovine DCN (purified, …). Kind of assay: ELISA, protein coated, FLAG-resistin detected with anti-FLAG (FIG. 6D).
Excerpt: as §1, with “Signal was detected by Odyssey imaging system using anti-goat IRDye 800CW or anti-rabbit IRDye 680 both from Licor Biosciences. Bovine” for “Bovine”

The target of assay [5] is T3, recombinant bacterially-purified mouse ΔDCN (His6-tagged, amino acids 45-354 of mouse DCN) (mouse, UniProt P28654 45-354).
T3 construct: Expressed in bacteria, so not glycosylated; also called delta-DCN; His6-ΔDCN
T3 sequence: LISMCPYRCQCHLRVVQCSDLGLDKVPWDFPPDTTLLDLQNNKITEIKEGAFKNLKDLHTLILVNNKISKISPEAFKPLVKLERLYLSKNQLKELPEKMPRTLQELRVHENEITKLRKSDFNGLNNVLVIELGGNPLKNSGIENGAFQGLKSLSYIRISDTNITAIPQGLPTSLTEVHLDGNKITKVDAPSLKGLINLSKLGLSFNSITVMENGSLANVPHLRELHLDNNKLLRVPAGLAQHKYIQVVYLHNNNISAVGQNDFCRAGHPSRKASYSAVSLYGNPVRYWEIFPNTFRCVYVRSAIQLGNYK
Kind of assay: ELISA, DCN forms coated, FLAG-resistin detected with anti-FLAG (FIG. 6D); reference: full-length DCN (mDCN). The method, then: For bacterial expression, full-length mouse core DCN and ΔDCN isoforms were produced by cloning fragments encoding amino acids 1-354 and 45-354 of mouse DCN cDNA (OriGene) or of CLIC4 cDNA (OriGene) in-frame with the His₆Tag into pET28a vector, respectively. His₆-tagged proteins were purified with His-Tag kit (Novagen). For ELISA binding assays, 100 μl of 10 μg/ml of indicated His₆-DCN preparations, His₆-CLIC4 (control His₆-protein), NS0 cell-expressed mouse DCN (R&D Systems), purified bovine DCN (Sigma-Aldrich), or BSA were coated and immobilized onto Maxisorb Immunoplates (96 well; NUNC) overnight at 4° C., followed by blocking with 3% BSA, and then incubating with 100 μl of indicated concentrations of WAT7 or control WAT2 peptides. For adipokines binding assay, FLAG-tagged mouse resistin produced in HEK293 cells (Enzo Life Sciences), or control FLAG-BAP protein (Sigma-Aldrich) were incubated at the concentrations indicated. Bound peptides or FLAG-resistin were probed with corresponding rabbit anti-peptide Genemed antibodies (1:2,000) or rabbit anti-FLAG antibodies (Sigma-Aldrich, 1:2,000) followed by secondary goat anti-rabbit HRP-conjugated antibodies (Millipore, 1:5,000) and signal detection with Ultra-TMB (Pierce) substrate and measurement of absorbance at 450 nm. […]

T1 sequence (P21793 31-360 limits assumed): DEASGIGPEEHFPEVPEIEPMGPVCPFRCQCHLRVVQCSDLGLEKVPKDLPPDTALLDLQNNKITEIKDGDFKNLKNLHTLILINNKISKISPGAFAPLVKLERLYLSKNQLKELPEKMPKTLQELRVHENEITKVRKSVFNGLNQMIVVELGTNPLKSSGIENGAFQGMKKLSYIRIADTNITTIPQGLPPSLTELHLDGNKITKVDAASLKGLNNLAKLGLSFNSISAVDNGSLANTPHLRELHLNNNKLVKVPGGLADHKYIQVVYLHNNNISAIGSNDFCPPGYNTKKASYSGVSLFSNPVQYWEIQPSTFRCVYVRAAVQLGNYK

B1: WAT7 peptide, cysteine-cyclized synthetic (CSWKYWFGEC) (peptide)
peptide: CSWKYWFGEC
modifications: disulfide 1-10
notes: Chemically synthesized (Genemed Synthesis); also called cyclic WAT7
In the case of B1, the binding result (in assay [1]; with bovine serum albumin [2]) was “no binding” throughout.

B2: FLAG-tagged mouse resistin produced in HEK293 cells (Enzo Life Sciences) (ligand, UniProt Q99P87 21-114, looked up)
chain: SSMPLCPIDEAIDKKIKQDFNSLFPNAIKNIGLNCWTVSSRGKLASCPEGTAVLSCSCGSACGSWDIREEKVCHCQCARIDWTAARCCKLQVAS
notes: Bought protein; also called FLAG-resistin; ADSF; not shown: FLAG tag
With B2, the binding result (with bovine serum albumin [3]; in assay [4]) was “no binding” in each case. Further, the “fold lower molar concentration for binding than to full-length DCN” value in assay [5] amounted to 100 fold.

These data come from patent US20160000930A1 (University of Texas, published 2016).
